Test results published in patent publication US20090209457A1, “TREATMENT OF ANTI-ERYTHROPOIETIN ANTIBODY-MEDIATED DISORDERS WITH SYNTHETIC PEPTIDE-BASED EPO RECEPTOR AGONISTS” (Affymax, Inc., priority 2008, published 2009).
Like-named read-outs stand apart in the source and are kept apart here. Bridge positions count the residues as written; N and C are the ends. Square brackets hold non-standard residues; d marks the D form. Ends that are not written are not given here. 1Nal = N[C@@H](Cc1cccc2ccccc12)C(=O)O; Sar = CNCC(=O)O

Tests used:
[1] = system: human, bone marrow derived CD34+ cells; assay: C/BFU-e assay (erythroid colonies); type: cell-based; details: 14 days, 90% of maximum colonies relative to EPO control
Experimental: EPO-R signaling stimulates the differentiation of bone marrow stem cells into proliferating red blood cell precursors. This assay measures the ability of test peptides to stimulate the proliferation and differentiation of red blood cell precursors from primary human bone marrow pluripotent stem cells.
For this assay, serial dilutions of test peptide are made in IMDM medium (Gibco) supplemented with 10% FBS (Hyclone). These serial dilutions, or positive control EPO peptide, are then added to methylcellulose to give a final volume of 1.5 mL. The methylcellulose and peptide mixture is then vortexed thoroughly. Aliquots (100,000 cells/mL) of human, bone marrow derived CD34+ cells (Poietics/Cambrex) are thawed. The thawed cells are gently added to 0.1 mL of 1 mg/ml DNAse (Stem Cells) in a 50 mL tube. Next, 40-50 mL IMDM medium is added gently to cells: the medium is added drop by drop along the side of the 50 mL tube for the first 10 mL, and then the remaining volume of medium is slowly dispensed along the side of the tube. The cells are then spun at 900 rpm for 20 min, and the media removed carefully by gentle aspiration. The cells are resuspended in 1 ml of IMDM medium and the cell density per mL is counted on hemacytometer slide (10 μL aliquot of cell suspension on slide, and cell density is the average count×10,000 cells/ml). The cells are then diluted in IMDM medium to a cell density of 15,000 cells/mL. A 100 μL of diluted cells is then added to each 1.5 mL methyl cellulose plus peptide sample (final cell concentration in assay media is 1000 cells/mL), and the mixture is vortexed. Allow the bubbles in the mixture to disappear, and then aspirate 1 mL using blunt-end needle. Add 0.25 mL aspirated mixture from each sample into each of 4 wells of a 24-well plate (Falcon brand). Incubate the plated mixtures at 37° C. under 5% CO2 in a humid incubator for 14 days. Score for the presence of erythroid colonies using a phase microscope (5×-10× objective, final magnification of 100×). The concentration of test peptide at which the number of formed colonies is 90% of maximum, relative to that observed with the EPO positive control, is recorded as the EC90 [See Table 2: C/BFU-e EC90].
For this assay, serial dilutions of test peptide are made in IMDM medium (Gibco) supplemented with 10% FBS (Hyclone). These serial dilutions, or positive control EPO peptide, are then added to methylcellulose to give a final volume of 1.5mL. The methylcellulose and peptide mixture is then vortexed thoroughly. […] The cells are resuspended in 1 ml of IMDM medium and the cell density per mL is counted on hemacytometer slide (10 μL aliquot of cell suspension on slide, and cell density is the average count×10,000 cells/ml). […]

[2] = biological target: T1, human EPO-R on cells (BaF3/Gal4/Elk/EPOR cells; human bone marrow derived CD34+ cells) (human, UniProt P19235 25-508); assay: cell-based or functional assay
T1 sequence (looked up): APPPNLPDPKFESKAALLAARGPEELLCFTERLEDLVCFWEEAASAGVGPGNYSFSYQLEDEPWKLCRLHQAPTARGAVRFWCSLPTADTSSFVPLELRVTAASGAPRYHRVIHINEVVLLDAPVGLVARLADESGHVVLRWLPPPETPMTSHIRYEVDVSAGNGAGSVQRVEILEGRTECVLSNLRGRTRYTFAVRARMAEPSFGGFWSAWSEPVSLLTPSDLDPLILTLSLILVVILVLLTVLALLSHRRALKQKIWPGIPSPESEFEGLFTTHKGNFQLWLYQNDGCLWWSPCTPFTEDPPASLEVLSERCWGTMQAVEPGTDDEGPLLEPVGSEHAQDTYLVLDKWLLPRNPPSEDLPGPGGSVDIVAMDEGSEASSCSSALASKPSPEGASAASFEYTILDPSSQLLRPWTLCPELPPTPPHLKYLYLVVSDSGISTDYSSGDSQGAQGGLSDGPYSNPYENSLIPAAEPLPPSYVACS

[3] = biological target: T2, chimeric receptor comprising the extra-cellular portion of the human EPO receptor to the intra-cellular … (human, UniProt P19235 25-250; Q99062 651-836, limits assumed); assay: cell-based or functional assay
T2 sequence (looked up): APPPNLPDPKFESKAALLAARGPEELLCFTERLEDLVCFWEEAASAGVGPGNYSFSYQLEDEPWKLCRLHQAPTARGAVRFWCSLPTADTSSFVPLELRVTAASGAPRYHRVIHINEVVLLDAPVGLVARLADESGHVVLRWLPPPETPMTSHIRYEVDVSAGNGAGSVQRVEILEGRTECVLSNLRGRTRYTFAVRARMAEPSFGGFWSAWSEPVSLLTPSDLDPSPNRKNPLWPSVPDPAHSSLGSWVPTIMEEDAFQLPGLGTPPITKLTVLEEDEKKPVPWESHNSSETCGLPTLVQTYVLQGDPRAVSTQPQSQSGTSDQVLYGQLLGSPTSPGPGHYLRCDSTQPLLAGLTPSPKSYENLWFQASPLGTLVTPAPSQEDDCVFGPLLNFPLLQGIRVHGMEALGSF

[4] = biological target: T1, human EPO-R on cells …; assay: cell-based or functional assay; remark: listed apart in the source
[5] = biological target: T2, chimeric receptor comprising the …; assay: cell-based or functional assay; remark: listed apart in the source
[6] = biological target: T3, Recombinant Human EPO R/Fc Chimera (R&D Systems, catalog number 963-ER) (human, UniProt P19235 25-250); assay: radioligand competition: displacement of 125I-EPO from recombinant human EPO R/Fc, Protein-G Sepharose pull-down
T3 construct: extracellular domain; Bought reagent; also called recombinant EPOr extracellular domain fused to the Fc portion of human IgG1; recombinant erythropoietin receptor; not shown: Fc portion of human IgG1
T3 sequence (looked up): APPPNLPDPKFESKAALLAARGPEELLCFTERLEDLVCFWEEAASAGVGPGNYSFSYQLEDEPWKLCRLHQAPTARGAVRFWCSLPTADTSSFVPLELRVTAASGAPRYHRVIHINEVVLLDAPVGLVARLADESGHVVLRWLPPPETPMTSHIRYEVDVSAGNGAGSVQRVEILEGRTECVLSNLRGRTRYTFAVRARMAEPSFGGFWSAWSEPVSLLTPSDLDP

[7] = biological target: T4, recombinant EPO-R produced in Chinese Hamster Ovary cells as a fusion protein to a portion of the human … (human, UniProt P19235 25-250); assay: competitive binding; the column head says only 'IC50 (pM)', the text ties Table 2 to the AQ bead proximity assay with tracer SEQ ID NO: 4 as competitor
T4 construct: In the assay it was held on protein A acceptor beads through antibody ab179
T4 sequence (looked up): T3 sequence (looked up)

Molecule: PEGylated peptide dimer of (AcG)GLYACHMGPIT(1-nal)VCQPLR(MeG) (SEQ ID NO: 3), EPO-R agonist [Peptide III] (Ac-GGLYACHMGPIT[1Nal]VCQPLR[Sar]; disulfide 6-15 (inferred); also: homodimer, C-termini joined to a lysine linker, PEGylated)
- EC90 [1]: 2.7 nM

Molecule: PEGylated peptide dimer of (AcG)GLYACHMGPIT(1-nal)VCQPLR(MeG) (SEQ ID NO: 3), EPO-R agonist [Peptide II] (Ac-GGLYACHMGPIT[1Nal]VCQPLR[Sar]; disulfide 6-15 (inferred); also: homodimer, C-termini joined to a lysine linker, PEGylated)
- EC90 [1]: 2.2 nM

Molecule: Peptide IV: PEGylated peptide dimer of (AcG)GLYACHMGPIT(1-nal)VCQPLRK (SEQ ID NO: 1), EPO-R agonist (Ac-GGLYACHMGPIT[1Nal]VCQPLRK; disulfide 6-15 (inferred); also: PEGylated peptide dimer)
- EC90 [1]: 6.2 nM

B1: Peptide III (SEQ ID NO: 3) (peptide)
peptide: Ac-GGLYACHMGPIT[1Nal]VCQPLR[Sar]
modifications: disulfide 6-15 (inferred); also: C-termini joined to α- and ε-amines of a Lys linker carrying spacer and PEG
- Proliferation EC50 [2]: 72 nM
- Reporter EC50 (pM) [3]: 150 pM

B2: Peptide I (SEQ ID NO: 2) (peptide)
peptide: Ac-GGLYACHMGPIT[1Nal]VCQPLR[Sar]K
modifications: disulfide 6-15 (inferred); also: K21 ε-amine joined to branched tertiary amide linker bearing PEG
- Proliferation EC50 (pM) [4]: 165 pM
- Reporter EC50 (pM) [5]: 195 pM
- IC50 [6]: 0.111 nM

B3: Peptide II (SEQ ID NO: 3) (peptide)
peptide: Ac-GGLYACHMGPIT[1Nal]VCQPLR[Sar]
modifications: disulfide 6-15 (inferred); also: C-termini joined to α- and ε-amines of a Lys linker carrying spacer and PEG
- IC50 [7]: 0.11 nM
